The record followed here is article PMC10244696, “Thioredoxin TRXo1 is involved in ABA perception via PYR1 redox regulation” (Redox Biology, 2023).

Data set [1] addresses T1, PYR1 in Arabidopsis leaf extracts (Arabidopsis thaliana (endogenous in Col-0 leaves)), O49686.
T1 chain: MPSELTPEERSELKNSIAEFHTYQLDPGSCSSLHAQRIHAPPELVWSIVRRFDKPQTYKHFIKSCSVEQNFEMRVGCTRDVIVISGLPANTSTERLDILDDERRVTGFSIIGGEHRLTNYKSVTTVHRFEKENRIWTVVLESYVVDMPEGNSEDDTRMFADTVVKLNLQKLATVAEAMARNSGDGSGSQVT
Description: non-reducing SDS-PAGE and Western blot of oligomeric forms; leaf extracts of Arabidopsis, anti-PYR1; wild type extract without blocking or alkylating agent, also with 50 mM DTT or 4 mM H2O2 added; WT, KO and OEX Attrxo1 plants with or without 10 μM ABA for 48 h (extracts with 5 mM NEM). The settings on record: remark: other sources report otherwise. (A western blot detects proteins with antibodies after separation by electrophoresis.)

The target in data set [2] is T2, recombinant HisAtPYR1 (Arabidopsis thaliana), O49686.
T2 chain: T1 chain
Description: SDS-PAGE and Western blot of oligomeric forms; recombinant HisAtPYR1 or its Cys mutants in 20 mM Tris-HCl pH 7.9, untreated, with 4 mM H2O2, or 2 mM DTT and then 4 mM H2O2 (30 min, room temperature); 2.5 μg on SDS-PAGE, anti-AtPYR1. To be noted: remark: other sources report otherwise.

Data set [3] deals with the molecule itself. The description is as above.

Where a chain is given by its changes, count along the chain named.

B1: PYR1 in Arabidopsis leaf extracts, O49686 1-191 (receptor)
chain: T1 chain
As to B1, in data set [1], the stoichiometry N stood at 2.

B2: recombinant HisAtPYR1, O49686 1-191 (receptor)
chain: T1 chain
Take B2: the stoichiometry N in data set [2] turned out to be 2.

B3: HisAtPYR1C30S (receptor, Arabidopsis thaliana, UniProt O49686 1-191, looked up)
chain: T1 chain with C30S
notes: PYR1 of Arabidopsis thaliana (At4g17870) with Cys30 replaced by Ser; cloned in NcoI/EcoRI of pETM11; source: E. coli BL21, purified (Ni-NTA agarose)
Regarding B3, the “amount of dimers, fold of PYR1” value in data set [3] amounted to 0.3 fold.

B4: HisAtPYR1C77S (receptor, Arabidopsis thaliana, UniProt O49686 1-191, looked up)
chain: T1 chain with C77S
notes: PYR1 of Arabidopsis thaliana (At4g17870) with Cys77 replaced by Ser; cloned in NcoI/EcoRI of pETM11; source: E. coli BL21, purified (Ni-NTA agarose)
On to B4, for which, in data set [3], the “amount of dimers, fold of PYR1” value is 0.6 fold.

B5: HisAtPYR1C65S (receptor, Arabidopsis thaliana, UniProt O49686 1-191, looked up)
chain: T1 chain with C65S
notes: PYR1 of Arabidopsis thaliana (At4g17870) with Cys65 replaced by Ser; cloned in NcoI/EcoRI of pETM11; source: E. coli BL21, purified (Ni-NTA agarose)
Take B5: the “amount of dimers, fold of PYR1” value in data set [3] amounted to 2.3 fold.

For orientation: stoichiometry N means a count of units in the complex or per binding partner.
